These results are taken from patent publication US20140274782A1, “AFFINITY REAGENTS AND METHODS FOR DETECTION, PURIFICATION, AND PROTEOMIC ANALYSIS OF METHYLATED PROTEINS” (The Board of Trustees of the Leland Stanford Junior …, priority 2013, published 2014).

One assay concerns the target T1, G9a and GLP (Homo sapiens, UniProt Q96KQ7+Q9H9B1).
T1 sequence (Q96KQ7 2-1210 limits assumed): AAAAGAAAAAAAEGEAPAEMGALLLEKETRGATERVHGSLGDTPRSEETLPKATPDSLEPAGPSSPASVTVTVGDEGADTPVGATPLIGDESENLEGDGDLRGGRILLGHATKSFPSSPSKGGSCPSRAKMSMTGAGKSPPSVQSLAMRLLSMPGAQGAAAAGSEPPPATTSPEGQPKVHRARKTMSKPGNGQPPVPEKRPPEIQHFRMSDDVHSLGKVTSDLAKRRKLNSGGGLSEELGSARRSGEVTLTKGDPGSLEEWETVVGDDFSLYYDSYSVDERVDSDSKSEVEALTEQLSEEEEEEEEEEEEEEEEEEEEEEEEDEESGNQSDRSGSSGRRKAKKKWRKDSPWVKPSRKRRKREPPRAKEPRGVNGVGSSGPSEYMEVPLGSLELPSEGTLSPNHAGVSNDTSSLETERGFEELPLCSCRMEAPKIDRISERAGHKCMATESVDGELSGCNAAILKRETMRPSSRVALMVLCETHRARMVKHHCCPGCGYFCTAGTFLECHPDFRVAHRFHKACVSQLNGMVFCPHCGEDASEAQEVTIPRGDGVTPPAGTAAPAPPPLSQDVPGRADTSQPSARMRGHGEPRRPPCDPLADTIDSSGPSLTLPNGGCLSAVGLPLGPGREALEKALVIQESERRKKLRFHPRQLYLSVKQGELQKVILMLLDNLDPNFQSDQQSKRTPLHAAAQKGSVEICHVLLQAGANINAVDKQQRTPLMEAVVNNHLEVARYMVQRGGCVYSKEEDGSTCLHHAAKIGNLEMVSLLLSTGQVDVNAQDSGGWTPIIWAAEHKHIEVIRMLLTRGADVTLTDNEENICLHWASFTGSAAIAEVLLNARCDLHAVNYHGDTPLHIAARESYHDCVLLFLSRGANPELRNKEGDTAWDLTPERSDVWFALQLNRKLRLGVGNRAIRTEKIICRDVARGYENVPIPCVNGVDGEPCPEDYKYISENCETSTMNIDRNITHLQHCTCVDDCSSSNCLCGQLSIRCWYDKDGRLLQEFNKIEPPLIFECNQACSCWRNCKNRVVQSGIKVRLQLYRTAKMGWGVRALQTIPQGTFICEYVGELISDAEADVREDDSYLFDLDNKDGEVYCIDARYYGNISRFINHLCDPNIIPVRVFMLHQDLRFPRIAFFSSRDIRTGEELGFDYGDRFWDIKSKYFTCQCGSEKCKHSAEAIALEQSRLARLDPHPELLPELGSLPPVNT
T1 sequence (Q9H9B1 2-1298 limits assumed): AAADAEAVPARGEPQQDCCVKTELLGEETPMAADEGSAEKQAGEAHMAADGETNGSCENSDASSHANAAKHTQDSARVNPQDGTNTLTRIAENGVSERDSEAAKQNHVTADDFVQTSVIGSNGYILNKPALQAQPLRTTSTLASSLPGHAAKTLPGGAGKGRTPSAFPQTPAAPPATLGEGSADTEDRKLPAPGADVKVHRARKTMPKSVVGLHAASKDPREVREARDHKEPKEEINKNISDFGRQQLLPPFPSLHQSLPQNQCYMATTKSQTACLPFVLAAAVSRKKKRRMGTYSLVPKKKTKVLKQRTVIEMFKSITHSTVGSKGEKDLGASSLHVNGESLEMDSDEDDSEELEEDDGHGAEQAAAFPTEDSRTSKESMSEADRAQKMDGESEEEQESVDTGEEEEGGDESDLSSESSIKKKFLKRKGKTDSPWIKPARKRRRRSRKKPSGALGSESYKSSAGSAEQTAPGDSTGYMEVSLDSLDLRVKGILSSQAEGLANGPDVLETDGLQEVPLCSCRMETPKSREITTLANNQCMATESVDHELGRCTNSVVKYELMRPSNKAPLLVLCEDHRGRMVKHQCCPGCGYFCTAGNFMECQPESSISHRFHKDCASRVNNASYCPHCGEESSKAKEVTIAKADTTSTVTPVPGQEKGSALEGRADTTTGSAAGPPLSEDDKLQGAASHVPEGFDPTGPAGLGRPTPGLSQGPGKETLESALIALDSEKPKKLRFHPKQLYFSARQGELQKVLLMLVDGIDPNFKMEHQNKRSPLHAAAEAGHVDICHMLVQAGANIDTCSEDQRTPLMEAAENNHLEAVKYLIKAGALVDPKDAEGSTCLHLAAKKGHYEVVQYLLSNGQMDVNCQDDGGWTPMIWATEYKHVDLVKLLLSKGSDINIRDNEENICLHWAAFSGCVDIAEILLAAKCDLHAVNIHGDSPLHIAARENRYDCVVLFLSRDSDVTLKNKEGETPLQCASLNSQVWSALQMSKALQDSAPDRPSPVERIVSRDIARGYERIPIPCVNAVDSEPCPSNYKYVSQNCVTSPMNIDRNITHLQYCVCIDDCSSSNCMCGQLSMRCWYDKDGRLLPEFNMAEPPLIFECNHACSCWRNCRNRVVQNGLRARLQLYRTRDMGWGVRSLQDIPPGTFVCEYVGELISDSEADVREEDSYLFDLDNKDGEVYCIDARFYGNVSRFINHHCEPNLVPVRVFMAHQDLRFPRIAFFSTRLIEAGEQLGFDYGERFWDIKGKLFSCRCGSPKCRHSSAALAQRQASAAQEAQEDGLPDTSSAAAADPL
The experiment in a line: Triple SILAC pull-down after UNC0638 treatment of 293T cells, DMSO/UNC0638 ratio of protein captured by 3×MBT.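 As to all read-outs here: mass spectrometry (Q-Exactive) SILAC quantitation, DMSO/UNC0638 ratio computed after subtracting 3×MBTD355N mutant pull-down background, only proteins with at least twofold 3×MBT over mutant signal considered.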 The assay is classed as cell-based. On the set-up: endogenous in cells; host or cells: HEK 293T. As to conditions: for Relative to UNC0638 UNC Heavy: UNC0638 in heavy SILAC media; for Relative to UNC0638 UNC Light: UNC0638 in light SILAC media; for Relative to UNC0638 Average: average of UNC Light and UNC Heavy experiments.

Another assay concerns 3×MBT domain of L3MBTL1. The experiment in a line: Triple SILAC pull-down, 3xMBT/3xMBTD355N ratio (cytoplasmic, nuclear and chromatin fractions of 293T cells).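 As to all read-outs here: proteins quantified with MaxQuant, requiring at least two unique peptides and quantification in both label directions, normalized to the mean of proteins from a digested loading control.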 It is filed as binding, human. As to conditions: for 3xMBT/D355N UNC Heavy: experiment with UNC0638 in heavy SILAC media; for 3xMBT/D355N UNC Light: experiment with UNC0638 in light SILAC media.
Where [1] appears, read: SILAC ratio DMSO relative to UNC0638, pull-down with 3xMBT, all values in log base 2.
The mark [2] stands for this setting: SILAC ratio 3xMBT vs 3xMBTD355N pull-down, 293T cells, all values in log base 2.
Setting [3] is: SILAC ratio DMSO/UNC0638 of protein pulled down with 3xMBT.
Where [4] appears, read: SILAC ratio, pull-down 3xMBT vs 3xMBTD355N.

B1: SNRNP40 (protein, UniProt Q96DI7 1-357, looked up)
U5 small nuclear …: MIEQQKRKGPELPLVPVKRQRHELLLGAGSGPGAGQQQATPGALLQAGPPRCSSLQAPIMLLSGHEGEVYCCKFHPNGSTLASAGFDRLILLWNVYGDCDNYATLKGHSGAVMELHYNTDGSMLFSASTDKTVAVWDSETGERVKRLKGHTSFVNSCYPARRGPQLVCTGSDDGTVKLWDIRKKAAIQTFQNTYQVLAVTFNDTSDQIISGGIDNDIKVWDLRQNKLTYTMRGHADSVTGLSLSSEGSYLLSNAMDNTVRVWDVRPFAPKERCVKIFQGNVHNFEKNLLRCSWSPDGSKIAAGSADRFVYVWDTTSRRILYKLPGHAGSINEVAFHPDEPIIISASSDKRLYMGEIQ
With B1, in the assay with G9a and GLP (setting [1]), the “Relative to UNC0638 UNC Heavy” value is on record as 0.27 log base 2 and the “Relative to UNC0638 UNC Light” value is on record as −0.12 log base 2. Also, the “Relative to UNC0638 Average” value with G9a and GLP (all values in log base 2) came out at 0.07 log base 2. Besides, in the assay with 3×MBT domain of L3MBTL1 (setting [2]), the “3xMBT/D355N UNC Heavy” value is on record as 2.39 log base 2 and the “3xMBT/D355N UNC Light” value was 2.64 log base 2.

B2: PPIL4 (protein, UniProt Q8WUA2 1-492, looked up)
Peptidyl-prolyl cis-trans …: MAVLLETTLGDVVIDLYTEERPRACLNFLKLCKIKYYNYCLIHNVQRDFIIQTGDPTGTGRGGESIFGQLYGDQASFFEAEKVPRIKHKKKGTVSMVNNGSDQHGSQFLITTGENLDYLDGVHTVFGEVTEGMDIIKKINETFVDKDFVPYQDIRINHTVILDDPFDDPPDLLIPDRSPEPTREQLDSGRIGADEEIDDFKGRSAEEVEEIKAEKEAKTQAILLEMVGDLPDADIKPPENVLFVCKLNPVTTDEDLEIIFSRFGPIRSCEVIRDWKTGESLCYAFIEFEKEEDCEKAFFKMDNVLIDDRRIHVDFSQSVAKVKWKGKGGKYTKSDFKEYEKEQDKPPNLVLKDKVKPKQDTKYDLILDEQAEDSKSSHSHTSKKHKKKTHHCSEEKEDEDYMPIKNTNQDIYREMGFGHYEEEESCWEKQKSEKRDRTQNRSRSRSRERDGHYSNSHKSKYQTDLYERERSKKRDRSRSPKKSKDKEKSKYR
B2: in the assay with G9a and GLP (setting [3]), the “Relative to UNC0638 UNC Heavy” value is 0.46 log base 2 and the “Relative to UNC0638 UNC Light” value is given as 0.50 log base 2. In addition, the “Relative to UNC0638 Average” value in the assay with G9a and GLP is given as 0.48 log base 2. Further, the “Candidate G9a/GLP target” value in the assay with G9a and GLP (reduced association with 3xMBT after UNC0638 treatment) was “✓”. In the assay with 3×MBT domain of L3MBTL1 (setting [4]), the “3xMBT/D355N UNC Heavy” value was 1.63 log base 2 and the “3xMBT/D355N UNC Light” value is 2.38 log base 2.

B3: UBXN1 (protein, UniProt Q04323 2-297, looked up)
UBX domain-containing protein …: AELTALESLIEMGFPRGRAEKALALTGNQGIEAAMDWLMEHEDDPDVDEPLETPLGHILGREPTSSEQGGLEGSGSAAGEGKPALSEEERQEQTKRMLELVAQKQREREEREEREALERERQRRRQGQELSAARQRLQEDEMRRAAEERRREKAEELAARQRVREKIERDKAERAKKYGGSVGSQPPPVAPEPGPVPSSPSQEPPTKREYDQCRIQVRLPDGTSLTQTFRAREQLAAVRLYVELHRGEELGGGQDPVQLLSGFPRRAFSEADMERPLQELGLVPSAVLIVAKKCPS
Regarding B3, in the assay with G9a and GLP (setting [1]), the “Relative to UNC0638 UNC Heavy” value was 0.12 log base 2 and the “Relative to UNC0638 UNC Light” value worked out at 0.04 log base 2. In addition, the “Relative to UNC0638 Average” value with G9a and GLP (all values in log base 2) came to 0.08 log base 2. For the same molecule, in the assay with 3×MBT domain of L3MBTL1 (setting [2]), the “3xMBT/D355N UNC Heavy” value was 0.62 log base 2 and the “3xMBT/D355N UNC Light” value is 1.91 log base 2.

B4: MAP4 (protein, UniProt P27816 2-1152, looked up)
Microtubule-associated …: ADLSLADALTEPSPDIEGEIKRDFIATLEAEAFDDVVGETVGKTDYIPLLDVDEKTGNSESKKKPCSETSQIEDTPSSKPTLLANGGHGVEGSDTTGSPTEFLEEKMAYQEYPNSQNWPEDTNFCFQPEQVVDPIQTDPFKMYHDDDLADLVFPSSATADTSIFAGQNDPLKDSYGMSPCNTAVVPQGWSVEALNSPHSESFVSPEAVAEPPQPTAVPLELAKEIEMASEERPPAQALEIMMGLKTTDMAPSKETEMALAKDMALATKTEVALAKDMESPTKLDVTLAKDMQPSMESDMALVKDMELPTEKEVALVKDVRWPTETDVSSAKNVVLPTETEVAPAKDVTLLKETERASPIKMDLAPSKDMGPPKENKKETERASPIKMDLAPSKDMGPPKENKIVPAKDLVLLSEIEVAQANDIISSTEISSAEKVALSSETEVALARDMTLPPETNVILTKDKALPLEAEVAPVKDMAQLPETEIAPAKDVAPSTVKEVGLLKDMSPLSETEMALGKDVTPPPETEVVLIKNVCLPPEMEVALTEDQVPALKTEAPLAKDGVLTLANNVTPAKDVPPLSETEATPVPIKDMEIAQTQKGISEDSHLESLQDVGQSAAPTFMISPETVTGTGKKCSLPAEEDSVLEKLGERKPCNSQPSELSSETSGIARPEEGRPVVSGTGNDITTPPNKELPPSPEKKTKPLATTQPAKTSTSKAKTQPTSLPKQPAPTTIGGLNKKPMSLASGLVPAAPPKRPAVASARPSILPSKDVKPKPIADAKAPEKRASPSKPASAPASRSGSKSTQTVAKTTTAAAVASTGPSSRSPSTLLPKKPTAIKTEGKPAEVKKMTAKSVPADLSRPKSTSTSSMKKTTTLSGTAPAAGVVPSRVKATPMPSRPSTTPFIDKKPTSAKPSSTTPRLSRLATNTSAPDLKNVRSKVGSTENIKHQPGGGRAKVEKKTEAAATTRKPESNAVTKTAGPIASAQKQPAGKVQIVSKKVSYSHIQSKCGSKDNIKHVPGGGNVQIQNKKVDISKVSSKCGSKANIKHKPGGGDVKIESQKLNFKEKAQAKVGSLDNVGHLPAGGAVKTEGGGSEAPLCPGPPAGEEPAISEAAPEAGAPTSASGLNGHPTLSGGGDQREAQTLDSQIQETSI
For the molecule B4, in the assay with G9a and GLP (setting [1]), the “Relative to UNC0638 UNC Heavy” value was 0.13 log base 2 and the “Relative to UNC0638 UNC Light” value came out at 0.03 log base 2. Further, in the assay with G9a and GLP (all values in log base 2), the “Relative to UNC0638 Average” value is listed as 0.08 log base 2. Besides, in the assay with 3×MBT domain of L3MBTL1 (setting [2]), the “3xMBT/D355N UNC Heavy” value came out at 1.41 log base 2 and the “3xMBT/D355N UNC Light” value is recorded as 2.75 log base 2.
